Data as given in patent publication US20260139032A1.

Target: T1, BMP-9 (UniProt Q9UK05)
T1 sequence (looked up): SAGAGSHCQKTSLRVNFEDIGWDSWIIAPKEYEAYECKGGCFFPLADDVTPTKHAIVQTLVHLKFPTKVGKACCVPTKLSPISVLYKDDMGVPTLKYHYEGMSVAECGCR
Test: cell-based or functional assay

BMP-9 IC50 (nM), BMP-reporter HepG2 cell-based assay [nM] | fold decrease of inhibition potency on BMP-9, BMP-reporter HepG2 assay [fold] | Substance
485 | > 100 | P1193 (hActRIIB L33Y F58E, 10 aa linker, IgG1-DL Fc) (Fc fusion)
667 | > 100 | P1198 (hActRIIB L33Q F58E, 3 aa GGG linker, IgG1-DL Fc) (Fc fusion)
